Data taken from patent publication US20120244171A1 (IMMUNOGEN, published 2012).

Biological target: human folate receptor 1 (human, UniProt P15328 25-234)
Assay: cell-based or functional assay

Chain of human folate receptor 1 (P15328 25-234): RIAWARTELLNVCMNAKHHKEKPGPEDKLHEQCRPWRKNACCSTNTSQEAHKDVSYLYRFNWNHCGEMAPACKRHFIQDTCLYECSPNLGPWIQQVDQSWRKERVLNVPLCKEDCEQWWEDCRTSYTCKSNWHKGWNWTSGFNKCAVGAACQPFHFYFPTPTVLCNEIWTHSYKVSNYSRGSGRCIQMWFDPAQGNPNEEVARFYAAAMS

B1: huFOLR1-SPDB-1f conjugate (antibody, human IgG1, kappa, V domains shown)
VH: QVQLVQSGAEVVKPGASVKISCKASGYTFTGYFMNWVKQSPGQSLEWIGRIHPYDGDTFYNQKFQGKATLTVDKSSNTAHMELLSLTSEDFAVYYCTRYDGSRAMDYWGQGTTVTVSS
VL: DIVLTQSPLSLAVSLGQPAIISCKASQSVSFAGTSLMHWYHQKPGQQPRLLIYRASNLEAGVPDRFSGSGSKTDFTLTISPVEAEDAATYYCQQSREYPYTFGGGTKLEIKR
modifications: compound 1f linked through the SPDB linker; positions not given
- fold loss of cytotoxic potency when blocked with unconjugated antibody: 40 fold
- fold reduction of cytotoxic effect on KB cells by an excess of unconjugated huFOLR1 antibody: > 40 fold
- in vitro cytotoxicity IC50 on antigen positive KB cells: 55 pM
